Assay results reported in publication PMC6555819, “Comprehensive study of nuclear receptor DNA binding provides a revised framework for understanding receptor specificity”.

Columns and labels:
RXRa = RXRa (Homo sapiens, UniProt P19793); assay: no ligand; PBM; 180 nM; PBS pH 7.4, 2% milk, 0.02% Triton X-100, 1 mM DTT, BSA, 0.4 mg/ml salmon testes DNA; conditions: tags: His cleaved; chain copies: 2; label: surface-attached array probe
RARb:RXRa = RARb:RXRa (Homo sapiens, UniProt P10826;P19793 full;full); assay: no ligand; PBM; 270 nM : 90 nM RXRa; PBS pH 7.4, 2% milk, 0.02% Triton X-100, 1 mM DTT, BSA, 0.4 mg/ml salmon testes DNA; conditions: tags: His kept;His cleaved; copies: 1;1; label: surface-attached array probe
Sequence of RARb:RXRa (P10826 whole entry, chain 1 of 2): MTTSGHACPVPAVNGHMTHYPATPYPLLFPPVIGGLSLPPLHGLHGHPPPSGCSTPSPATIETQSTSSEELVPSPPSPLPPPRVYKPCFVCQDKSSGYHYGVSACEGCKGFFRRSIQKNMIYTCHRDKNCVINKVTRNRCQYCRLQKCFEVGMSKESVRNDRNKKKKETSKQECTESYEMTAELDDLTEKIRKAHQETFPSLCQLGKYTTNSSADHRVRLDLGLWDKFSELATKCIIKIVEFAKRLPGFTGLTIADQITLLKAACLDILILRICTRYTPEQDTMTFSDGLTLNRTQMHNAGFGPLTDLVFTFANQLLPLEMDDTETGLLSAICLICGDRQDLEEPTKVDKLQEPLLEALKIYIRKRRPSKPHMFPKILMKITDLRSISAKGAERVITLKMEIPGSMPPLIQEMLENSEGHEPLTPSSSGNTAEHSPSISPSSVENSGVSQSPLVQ
Sequence of RARb:RXRa (P19793 whole entry, chain 2 of 2): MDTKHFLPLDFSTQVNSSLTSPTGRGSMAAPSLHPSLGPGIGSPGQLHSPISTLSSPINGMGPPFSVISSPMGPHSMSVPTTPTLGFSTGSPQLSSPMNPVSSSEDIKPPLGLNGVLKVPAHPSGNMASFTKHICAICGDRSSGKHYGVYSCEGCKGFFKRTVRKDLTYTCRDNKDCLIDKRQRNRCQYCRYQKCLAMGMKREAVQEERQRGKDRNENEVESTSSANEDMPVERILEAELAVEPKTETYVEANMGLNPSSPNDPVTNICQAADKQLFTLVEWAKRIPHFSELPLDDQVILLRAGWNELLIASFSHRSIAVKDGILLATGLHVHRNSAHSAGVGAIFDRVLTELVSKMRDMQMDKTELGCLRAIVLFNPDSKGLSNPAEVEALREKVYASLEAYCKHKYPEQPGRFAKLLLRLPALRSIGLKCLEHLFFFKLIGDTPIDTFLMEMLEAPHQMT
Procedure, shortened: (§1)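 Binding buffer was PBS pH 7.4 with 2% milk, 0.02% Triton X-100, 1 mM DTT, 0.2 mg/mL BSA and 0.4 mg/ml salmon testes DNA. In it, ligand-free nuclear receptor dimers were incubated 1 h on custom Agilent 4×180K protein-binding microarrays carrying double-stranded probes. Antibodies against each partner (one per run) detected binding, and z-scores were calculated against random background probes after regression normalization of scanned fluorescence.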

VDR:RXRa = VDR:RXRa (Homo sapiens, UniProt P11473;P19793 full;full); assay: as above; conditions: tags: His kept;His cleaved; copies: 1;1; label: surface-attached array probe
Sequence of VDR:RXRa (P11473 whole entry, chain 1 of 2): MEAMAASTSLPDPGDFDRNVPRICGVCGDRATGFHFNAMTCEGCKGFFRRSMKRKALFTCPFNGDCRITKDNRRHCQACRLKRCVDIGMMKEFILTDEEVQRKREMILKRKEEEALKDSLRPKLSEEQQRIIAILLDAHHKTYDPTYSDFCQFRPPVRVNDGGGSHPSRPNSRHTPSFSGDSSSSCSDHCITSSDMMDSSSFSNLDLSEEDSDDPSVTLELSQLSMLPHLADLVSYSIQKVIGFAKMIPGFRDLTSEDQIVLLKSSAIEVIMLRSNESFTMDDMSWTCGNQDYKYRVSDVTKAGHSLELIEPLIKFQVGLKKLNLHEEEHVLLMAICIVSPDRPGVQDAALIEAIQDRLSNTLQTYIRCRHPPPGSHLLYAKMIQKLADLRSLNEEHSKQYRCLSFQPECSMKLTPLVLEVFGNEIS
Sequence of VDR:RXRa (P19793 whole entry, chain 2 of 2): as the sequence (P19793 whole entry, chain 2 of 2) above
Procedure, shortened: as §1

RARg:RXRa = RARg:RXRa (Homo sapiens, UniProt P13631;P19793 full;full); assay: as above; conditions: tags: His kept;His cleaved; copies: 1;1; label: surface-attached array probe
Sequence of RARg:RXRa (P13631 whole entry, chain 1 of 2): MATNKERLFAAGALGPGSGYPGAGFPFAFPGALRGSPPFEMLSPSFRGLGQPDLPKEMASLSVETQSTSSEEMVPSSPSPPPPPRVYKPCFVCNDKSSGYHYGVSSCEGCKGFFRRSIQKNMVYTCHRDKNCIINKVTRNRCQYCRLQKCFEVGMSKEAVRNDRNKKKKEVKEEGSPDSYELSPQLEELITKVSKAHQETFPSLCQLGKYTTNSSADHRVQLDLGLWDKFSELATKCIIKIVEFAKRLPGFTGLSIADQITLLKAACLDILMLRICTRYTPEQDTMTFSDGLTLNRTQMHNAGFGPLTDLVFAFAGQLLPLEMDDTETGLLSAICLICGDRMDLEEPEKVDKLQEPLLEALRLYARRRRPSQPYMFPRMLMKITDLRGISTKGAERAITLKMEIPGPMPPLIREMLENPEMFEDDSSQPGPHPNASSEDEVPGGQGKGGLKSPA
Sequence of RARg:RXRa (P19793 whole entry, chain 2 of 2): as the sequence (P19793 whole entry, chain 2 of 2) above
Procedure, shortened: as §1

PPARa:RXRa = PPARa:RXRa (Homo sapiens, UniProt Q07869;P19793 full;full); assay: as above; conditions: tags: GST kept;His cleaved; copies: 1;1; label: surface-attached array probe
Sequence of PPARa:RXRa (Q07869 whole entry, chain 1 of 2): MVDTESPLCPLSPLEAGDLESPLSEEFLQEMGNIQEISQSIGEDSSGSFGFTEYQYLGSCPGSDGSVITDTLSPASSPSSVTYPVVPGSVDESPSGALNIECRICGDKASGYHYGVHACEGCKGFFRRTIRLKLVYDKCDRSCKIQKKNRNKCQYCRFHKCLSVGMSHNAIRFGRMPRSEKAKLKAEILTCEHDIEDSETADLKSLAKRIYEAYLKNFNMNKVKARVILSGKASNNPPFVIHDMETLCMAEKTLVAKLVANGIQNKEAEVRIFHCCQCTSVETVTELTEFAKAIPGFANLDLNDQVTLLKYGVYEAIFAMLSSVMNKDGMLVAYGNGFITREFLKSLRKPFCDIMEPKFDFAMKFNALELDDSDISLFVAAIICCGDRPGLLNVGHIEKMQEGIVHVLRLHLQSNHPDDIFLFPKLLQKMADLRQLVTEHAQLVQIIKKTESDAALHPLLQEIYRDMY
Sequence of PPARa:RXRa (P19793 whole entry, chain 2 of 2): as the sequence (P19793 whole entry, chain 2 of 2) above
Procedure, shortened: as §1

FXR:RXRa = FXR:RXRa (Homo sapiens, UniProt Q96RI1;P19793 full;full); assay: as above; conditions: tags: His kept;His cleaved; copies: 1;1; label: surface-attached array probe
Sequence of FXR:RXRa (Q96RI1 whole entry, chain 1 of 2): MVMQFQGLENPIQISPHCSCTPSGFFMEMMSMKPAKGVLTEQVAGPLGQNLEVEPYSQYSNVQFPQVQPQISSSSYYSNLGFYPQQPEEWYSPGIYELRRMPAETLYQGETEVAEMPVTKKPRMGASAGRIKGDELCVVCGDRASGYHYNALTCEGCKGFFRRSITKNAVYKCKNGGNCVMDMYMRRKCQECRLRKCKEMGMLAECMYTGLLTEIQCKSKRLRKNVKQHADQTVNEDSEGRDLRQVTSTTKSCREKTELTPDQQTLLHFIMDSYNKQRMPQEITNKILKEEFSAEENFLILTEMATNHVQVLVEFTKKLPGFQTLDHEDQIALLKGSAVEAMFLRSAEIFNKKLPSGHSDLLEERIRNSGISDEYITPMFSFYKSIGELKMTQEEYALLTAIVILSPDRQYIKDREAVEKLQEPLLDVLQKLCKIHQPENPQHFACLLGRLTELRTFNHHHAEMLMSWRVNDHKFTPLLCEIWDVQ
Sequence of FXR:RXRa (P19793 whole entry, chain 2 of 2): as the sequence (P19793 whole entry, chain 2 of 2) above
Procedure, shortened: as §1

Sequence of RXRa (P19793 whole entry): as the sequence (P19793 whole entry, chain 2 of 2) above

Binder	binding signal (RXRa)	binding signal (VDR:RXRa)	binding signal (PPARa:RXRa)	also measured
NRC3_random_hg19_45_o1 (dsDNA) DNA 1: GCAAACACAAAGTTTGGGCTGCCTTCTCTAGAGATTGCGATTGACAGCGTAGAATGAAGG DNA 2: CCTTCATTCTACGCTGTCAATCGCAATCTCTAGAGAAGGCAGCCCAAACTTTGTGTTTGC	-0.51 PBM z-score against 500 random probes	–	–	binding signal (RARb:RXRa): -0.19 PBM z-score against 500 random probes
NRC3_wobSeed81_DR3_A13C_o1 (dsDNA) DNA 1: GCATCTCTAGGTCACCAAGTTCAGTGAATGCCGAACGCGATTGACAGCGTAGAATGAAGG DNA 2: CCTTCATTCTACGCTGTCAATCGCGTTCGGCATTCACTGAACTTGGTGACCTAGAGATGC	–	7.59 PBM z-score against 500 random probes	–	–
NRC3_wobSeed113_DR4_A14C_o1 (dsDNA) DNA 1: GCATATGTAGGTTCGCTGGGGTCATTCAGACTAGGCGCGATTGACAGCGTAGAATGAAGG DNA 2: CCTTCATTCTACGCTGTCAATCGCGCCTAGTCTGAATGACCCCAGCGAACCTACATATGC	–	7.03 PBM z-score against 500 random probes	–	–
NRC3_wobSeed97_DR4_T8C_o1 (dsDNA) DNA 1: GCCAAACCAGGTCACGAAAGGTCAAAGTCGAATGACGCGATTGACAGCGTAGAATGAAGG DNA 2: CCTTCATTCTACGCTGTCAATCGCGTCATTCGACTTTGACCTTTCGTGACCTGGTTTGGC	9.26 PBM z-score against 500 random probes	–	–	binding signal (RARg:RXRa): 8.22 PBM z-score against 500 random probes
NRC3_random_hg19_226_o1 (dsDNA) DNA 1: GCCATCCCATTTCTCTTCCCAAGGGATTTGAAAGAGGCGATTGACAGCGTAGAATGAAGG DNA 2: CCTTCATTCTACGCTGTCAATCGCCTCTTTCAAATCCCTTGGGAAGAGAAATGGGATGGC	-0.08 PBM z-score against 500 random probes	–	–	binding signal (RARg:RXRa): -0.16 PBM z-score against 500 random probes
NRC3_random_hg19_443_o1 (dsDNA) DNA 1: GCTAGTACTTGGTCCATAGCACTACTACTCACTTTGGCGATTGACAGCGTAGAATGAAGG DNA 2: CCTTCATTCTACGCTGTCAATCGCCAAAGTGAGTAGTAGTGCTATGGACCAAGTACTAGC	0.04 PBM z-score against 500 random probes	–	-0.32 PBM z-score against 500 random probes	binding signal (RARb:RXRa): -0.05 PBM z-score against 500 random probes
NRC3_random_hg19_21_o1 (dsDNA) DNA 1: GCAACATTTCAGTATACTTTCTAGCAACTCTGGGTAGCGATTGACAGCGTAGAATGAAGG DNA 2: CCTTCATTCTACGCTGTCAATCGCTACCCAGAGTTGCTAGAAAGTATACTGAAATGTTGC	0.34 PBM z-score against 500 random probes	–	0.2 PBM z-score against 500 random probes	–
NRC3_wobSeed94_DR3_G23A_o1 (dsDNA) DNA 1: GCCTACCAAGGTGAACAAGGTCATTGATTACTATTCGCGATTGACAGCGTAGAATGAAGG DNA 2: CCTTCATTCTACGCTGTCAATCGCGAATAGTAATCAATGACCTTGTTCACCTTGGTAGGC	–	7.03 PBM z-score against 500 random probes	–	–
NRC3_wobSeed109_DR4_T15C_o1 (dsDNA) DNA 1: GCCGTCCAAGGTCACAGGAGGTCAGTGAAGACAGATGCGATTGACAGCGTAGAATGAAGG DNA 2: CCTTCATTCTACGCTGTCAATCGCATCTGTCTTCACTGACCTCCTGTGACCTTGGACGGC	7.9 PBM z-score against 500 random probes	–	–	binding signal (RARb:RXRa): 5.7 PBM z-score against 500 random probes; binding signal (RARg:RXRa): 7.39 PBM z-score against 500 random probes
NRC3_wobSeed88_DR3_o1 (dsDNA) DNA 1: GCTAGCCTAGGTCATGCGGGCCAGTATAGTGTCGGCGCGATTGACAGCGTAGAATGAAGG DNA 2: CCTTCATTCTACGCTGTCAATCGCGCCGACACTATACTGGCCCGCATGACCTAGGCTAGC	3.04 PBM z-score against 500 random probes	–	3.33 PBM z-score against 500 random probes	–
NRC3_wobSeed77_DR3_G20T_o1 (dsDNA) DNA 1: GCACTTACGGGTCAACGAGTTTATAGCACGCGTATAGCGATTGACAGCGTAGAATGAAGG DNA 2: CCTTCATTCTACGCTGTCAATCGCTATACGCGTGCTATAAACTCGTTGACCCGTAAGTGC	–	8.27 PBM z-score against 500 random probes	–	–
NRC3_random_hg19_63_o1 (dsDNA) DNA 1: GCTTTCAAGGCAGTAAGAGTTTGCTGTGCATCAGCTGCGATTGACAGCGTAGAATGAAGG DNA 2: CCTTCATTCTACGCTGTCAATCGCAGCTGATGCACAGCAAACTCTTACTGCCTTGAAAGC	-1.05 PBM z-score against 500 random probes	–	–	binding signal (RARb:RXRa): -0.61 PBM z-score against 500 random probes
NRC3_wobSeed95_DR3_G12T_o1 (dsDNA) DNA 1: GCAGAACGAGGTCAATGAGTTGATAGCACGGGTGGCGCGATTGACAGCGTAGAATGAAGG DNA 2: CCTTCATTCTACGCTGTCAATCGCGCCACCCGTGCTATCAACTCATTGACCTCGTTCTGC	–	7.63 PBM z-score against 500 random probes	–	–
NRC3_random_hg19_95_o1 (dsDNA) DNA 1: GCATCTTCAGTATGTTTCATTCAGTAGCTCAGTGGCGCGATTGACAGCGTAGAATGAAGG DNA 2: CCTTCATTCTACGCTGTCAATCGCGCCACTGAGCTACTGAATGAAACATACTGAAGATGC	-0.26 PBM z-score against 500 random probes	–	-0.24 PBM z-score against 500 random probes	–
NRC3_wobSeed82_DR3_G22C_o1 (dsDNA) DNA 1: GCATCGAAAGGTCGACGAGGTCAGTATACACCGTTTGCGATTGACAGCGTAGAATGAAGG DNA 2: CCTTCATTCTACGCTGTCAATCGCAAACGGTGTATACTGACCTCGTCGACCTTTCGATGC	–	7.66 PBM z-score against 500 random probes	–	–
NRC3_wobSeed61_DR2_G10C_o1 (dsDNA) DNA 1: GCCGTCCAACGTCAGCAGGTCAGTGAAAGCGACGTGGCGATTGACAGCGTAGAATGAAGG DNA 2: CCTTCATTCTACGCTGTCAATCGCCACGTCGCTTTCACTGACCTGCTGACGTTGGACGGC	0.42 PBM z-score against 500 random probes	–	0.49 PBM z-score against 500 random probes	–
NRC3_wobSeed27_DR1_G22C_o1 (dsDNA) DNA 1: GCACTCGGAGGACAAAGGTCACAGCTACGCCAGTGAGCGATTGACAGCGTAGAATGAAGG DNA 2: CCTTCATTCTACGCTGTCAATCGCTCACTGGCGTAGCTGTGACCTTTGTCCTCCGAGTGC	8.07 PBM z-score against 500 random probes	–	–	binding signal (RARg:RXRa): 7.47 PBM z-score against 500 random probes
NRC3_random_hg19_375_o1 (dsDNA) DNA 1: GCCAGAAGAGGAGAAGACACATAAGAAGAGGAAGTCGCGATTGACAGCGTAGAATGAAGG DNA 2: CCTTCATTCTACGCTGTCAATCGCGACTTCCTCTTCTTATGTGTCTTCTCCTCTTCTGGC	0.13 PBM z-score against 500 random probes	–	–	binding signal (FXR:RXRa): 0.5 PBM z-score against 500 random probes
NRC3_wobSeed63_DR2_T8G_o1 (dsDNA) DNA 1: GCCGAACGAGGTCACCAGGACAGTGAAGAGGTTGGAGCGATTGACAGCGTAGAATGAAGG DNA 2: CCTTCATTCTACGCTGTCAATCGCTCCAACCTCTTCACTGTCCTGGTGACCTCGTTCGGC	7.78 PBM z-score against 500 random probes	–	6.82 PBM z-score against 500 random probes	binding signal (RARb:RXRa): 5.63 PBM z-score against 500 random probes; binding signal (FXR:RXRa): 7.97 PBM z-score against 500 random probes
NRC3_wobSeed74_DR3_T9G_o1 (dsDNA) DNA 1: GCTCTAGTGGGTCACGGAGGTCACACACGACGGGTAGCGATTGACAGCGTAGAATGAAGG DNA 2: CCTTCATTCTACGCTGTCAATCGCTACCCGTCGTGTGTGACCTCCGTGACCCACTAGAGC	–	7.63 PBM z-score against 500 random probes	–	–
NRC3_wobSeed73_DR3_G20T_o1 (dsDNA) DNA 1: GCCAAACTAGGTCACAGAGTTCAAAGTCCGTGCGTAGCGATTGACAGCGTAGAATGAAGG DNA 2: CCTTCATTCTACGCTGTCAATCGCTACGCACGGACTTTGAACTCTGTGACCTAGTTTGGC	–	8.45 PBM z-score against 500 random probes	–	–
NRC3_wobSeed13_DR0_A8G_o1 (dsDNA) DNA 1: GCCGTCCGAGGTCAAGGTCAGTGAAAGAGACTCGAAGCGATTGACAGCGTAGAATGAAGG DNA 2: CCTTCATTCTACGCTGTCAATCGCTTCGAGTCTCTTTCACTGACCTTGACCTCGGACGGC	8 PBM z-score against 500 random probes	–	6.49 PBM z-score against 500 random probes	binding signal (FXR:RXRa): 8.4 PBM z-score against 500 random probes; binding signal (RARg:RXRa): 7.45 PBM z-score against 500 random probes
NRC3_wobSeed28_DR1_T26G_o1 (dsDNA) DNA 1: GCCCTACTGGGCCAAAGGTCATTGAGTCCAATGCTCGCGATTGACAGCGTAGAATGAAGG DNA 2: CCTTCATTCTACGCTGTCAATCGCGAGCATTGGACTCAATGACCTTTGGCCCAGTAGGGC	–	7.34 PBM z-score against 500 random probes	–	–
NRC3_random_hg19_114_o1 (dsDNA) DNA 1: GCCAAGGCAGCCAGAACTGATGATTGCACTGTGTGGGCGATTGACAGCGTAGAATGAAGG DNA 2: CCTTCATTCTACGCTGTCAATCGCCCACACAGTGCAATCATCAGTTCTGGCTGCCTTGGC	-0.24 PBM z-score against 500 random probes	–	–	binding signal (RARb:RXRa): -1.11 PBM z-score against 500 random probes
NRC3_wobSeed53_DR2_C8A_o1 (dsDNA) DNA 1: GCCCTTAAGGGTCACGAGGTTATAGCACGACGAGCGGCGATTGACAGCGTAGAATGAAGG DNA 2: CCTTCATTCTACGCTGTCAATCGCCGCTCGTCGTGCTATAACCTCGTGACCCTTAAGGGC	8.38 PBM z-score against 500 random probes	–	7.03 PBM z-score against 500 random probes	binding signal (RARb:RXRa): 6 PBM z-score against 500 random probes; binding signal (FXR:RXRa): 8.42 PBM z-score against 500 random probes; binding signal (RARg:RXRa): 7.41 PBM z-score against 500 random probes
NRC3_random_hg19_248_o1 (dsDNA) DNA 1: GCGTGTTCTACTGTACTGCAGCTGAGCCGACACTCAGCGATTGACAGCGTAGAATGAAGG DNA 2: CCTTCATTCTACGCTGTCAATCGCTGAGTGTCGGCTCAGCTGCAGTACAGTAGAACACGC	-0.43 PBM z-score against 500 random probes	–	–	binding signal (RARg:RXRa): -0.34 PBM z-score against 500 random probes
